Laboratory results from patent US20200399347A1, “IL-22BP COMPOSITIONS AND METHOD FOR THE TREATMENT OF DISEASE THEREWITH” (The Regents of the University of Michigan, priority 2017, published 2020).
Blank lines part the entries; values can stand above or below the molecule they belong to.

Assays:
PD2560 = assay: Cisplatin mediated cell death (cleaved caspase 3 immunoblot) with or without IL-22 pre-treatment; format: cell-based, murine
Procedure: Chemoresistance is a well-established phenomenon in PDAC and is often responsible for disease progression and death. […] Cells were then treated with varying doses of cisplatin and cell death assessed by immunoblot for cleaved caspase 3. Degree of DNA damage was determined by measurement of phosphorylated histone 2AX (pH2AX), a marker of DNA damage triggered by cisplatin (ref. 39; incorporated by reference in its entirety). […] The differences in cell death appeared to be mediated by changes in DNA damage (FIG. 6 Panel B).

[1] = target: T1, IL-22BP-Alb fusion protein (human IL-22BP fused to murine albumin) (Homo sapiens; mouse, UniProt Q969J5 22-263); assay: binding inferred from neutralisation of IL-22-induced pSTAT3 signaling in vitro
T1 construct: also called fusion protein of hIL-22BP and albumin; not shown: serum albumin, mouse, cloned from mouse liver
T1 sequence: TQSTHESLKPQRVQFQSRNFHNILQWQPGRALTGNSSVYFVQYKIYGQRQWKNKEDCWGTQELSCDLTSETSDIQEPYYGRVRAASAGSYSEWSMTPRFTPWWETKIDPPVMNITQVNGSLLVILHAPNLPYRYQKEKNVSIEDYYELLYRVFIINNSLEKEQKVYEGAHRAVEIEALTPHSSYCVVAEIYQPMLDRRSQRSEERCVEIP
Procedure: (§1) IL-22BP is an important regulator of IL-22 signaling at the tissue level and functions by sequestering cytokine and blocking its ability to bind to its cognate receptor. Its high affinity for IL-22 and neutralizing ability make it an attractive target for pharmacologic disruption of IL-22 signaling. To determine its efficacy in vitro, a fixed concentration of human and mouse IL-22 (100 ng/ml) was incubated for 30 minutes with increasing concentrations of human or mouse IL-22BP (0-1000 ng/ml). The mixture was then placed onto human and murine PDAC lines and IL-22 signaling measured by pSTAT3 activation at 15 minutes. […] A fusion protein which binds hIL-22BP to murine albumin was constructed.

[2] = target: T2, human IL-22 binding protein (IL-22BP) (Homo sapiens, UniProt Q969J5 22-263); assay: binding inferred from neutralisation of IL-22-induced pSTAT3 on PDAC cells (immunoblot)
T2 construct: also called hIL-22BP; human IL-22BP
T2 sequence: T1 sequence

PKCY cells = assay: Matrigel invasion assay, PDAC line; format: cell-based, murine; conditions: IL-22 incubation compared to control conditions (untreated and IL-6)
Procedure: (§2) To establish the role of IL-22 in pancreatic tumorigenesis in vitro, the murine PDAC line PKCY and PanIN lines 134, 5505 and 5552 were incubated in IL-22. Matrigel invasion assays were performed and number of infiltrating cells quantified. IL-22 incubation induced a 10-fold increase in invasion of PKCY cells compared to control conditions (untreated and IL-6) (FIG. 5 Panel A). […] Wild-type and IL-22 knockout mice were subcutaneously inoculated with equal quantities of PKCY cells. At 21 days, mice were sacrificed and tumor development, size and weight were determined.

PanIN cell lines = assay: Matrigel invasion assay, PanIN lines; format: cell-based, murine; conditions: IL-22 incubation; two PanIN cell lines with little to no invasive capability at baseline
Procedure: as §2

[3] = system: human and mouse PDAC cell lines; assay: Immunoblotting for STAT3 and NF-κB activation after IL-22 incubation; format: cell-based; conditions: 100 ng/ml of IL-22 for 15 and 30 minutes
From the text: One of the principle signaling pathways activated by ligand binding at IL-22R1 is via JAK mediated phosphorylation of STAT3 (pSTAT3) (Refs. 7, 36, 37; incorporated by reference in its entirety). Because of constitutive association of STAT3 with the intracellular domain of the receptor, signaling is activated rapidly and efficiently upon IL-22 binding (ref 38; incorporated by reference in its entirety). A second, less described IL-22 signaling pathway is via NF-κB, which leads to transcription of genes associated with proliferation and prevention of apoptosis (ref. 6, 7; incorporated by reference in their entireties). To evaluate the ability of IL-22 to activate STAT3 and NF-κB in human and mouse PDAC, cell lines were incubated with 100 ng/ml of IL-22 for 15 and 30 minutes. […] To determine the presence of STAT3 activation in-vivo, IHC for pSTAT3 was performed on pancreata harvested from PKCY mice at 8 weeks (low-grade PanIN), 12 weeks (high-grade PanIN) and after ultrasound confirmation of PDAC. pSTAT3 staining was increased as lesions advanced from low grade PanIN to invasive cancer (FIG. 4B-D).

IL-22 [4] = target: T3, IL-22 (Homo sapiens, UniProt Q9GZX6); assay: Neutralization of human IL-22 by IL-22BP, read out as pSTAT3 activation in PDAC lines; format: cell-based; conditions: IL-22 100 ng/ml incubated 30 minutes with IL-22BP 0-1000 ng/ml, pSTAT3 at 15 minutes in PDAC lines
T3 sequence (Q9GZX6 34-179): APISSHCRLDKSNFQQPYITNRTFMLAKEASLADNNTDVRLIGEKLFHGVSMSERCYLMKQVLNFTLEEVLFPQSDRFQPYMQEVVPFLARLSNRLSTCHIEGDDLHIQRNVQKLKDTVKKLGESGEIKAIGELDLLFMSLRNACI
Procedure: as §1

mouse IL-22 = target: T4, mouse IL-22 (Mus musculus, UniProt Q9JJY9); assay: Neutralization of mouse IL-22 by IL-22BP, read out as pSTAT3 activation in PDAC lines; format: cell-based; conditions: IL-22 100 ng/ml incubated 30 minutes with IL-22BP 0-1000 ng/ml, pSTAT3 at 15 minutes in PDAC lines
T4 sequence (Q9JJY9 34-179): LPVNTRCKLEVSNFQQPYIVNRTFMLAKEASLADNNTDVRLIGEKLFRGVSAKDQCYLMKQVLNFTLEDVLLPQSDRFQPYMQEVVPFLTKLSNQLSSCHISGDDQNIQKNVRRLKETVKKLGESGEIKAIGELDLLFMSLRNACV
Procedure: as §1

IL-22 [5] = target: T3, IL-22; assay: In vitro testing of fusion protein for sequestration and abrogation of STAT3 signaling; format: cell-based; conditions: IL-22 species not stated, FIG. 6 Panel E
Procedure: as §1

Molecule: N.N.[Cl][Pt][Cl] [cisplatin, reference compound]
cell death by cisplatin (cleaved caspase 3) (PD2560; murine PDAC line PD2560, low and high doses): showed sensitivity

B2: IL-22: α-helical cytokine that binds the heterodimeric cell surface receptor IL-22R (protein, UniProt Q9GZX6 34-179, looked up)
Interleukin-22: T3 sequence (Q9GZX6 34-179)
increase in invasion of PKCY cells (PKCY cells): 10 fold | invasion of PanIN cell lines (PanIN cell lines): induced invasion | pSTAT3 activation [3]: robust pSTAT3 activation | pNF-κB ([3]; KPC and PKCY lines): modest increase | effect of IL-22 pre-treatment on sensitivity to cisplatin (PD2560; PD2560 cultured in IL-22 for 4 days before cisplatin): diminished

B3: IL-22BP-Alb: fusion protein which binds hIL-22BP to murine albumin (protein)
chain: T1 sequence
modifications: left off: large carriers
neutralization of human IL-22 (pSTAT3 activation) (IL-22 [4]): capable of binding and neutralizing | neutralization of murine IL-22 (pSTAT3 activation) (mouse IL-22): capable of binding and neutralizing | neutralization of IL-22 (sequestration and abrogation of STAT3 signaling) (IL-22 [5]): capable of neutralizing IL-22

B5: Human IL-22BP: human interleukin-22 binding protein, soluble receptor capable of cytokine neutralization (SEQ ID NO: 1) (protein, listed as Homo sapiens)
chain: MMPKHCFLGFLISFFLTGVAGTQSTHESLKPQRVQFQSRNFHNILQWQPGRALTGNSSVYFVQYKIYGQRQWKNKEDCWGTQELSCDLTSETSDIQEPYYGRVRAASAGSYSEWSMTPRFTPWWETKIDPPVMNITQVNGSLLVILHAPNLPYRYQKEKNVSIEDYYELLYRVFIINNSLEKEQKVYEGAHRAVEIEALTPHSSYCVVAEIYQPMLDRRSQRSEERCVEIP
neutralization of human IL-22 (pSTAT3 activation) (IL-22 [4]): completely neutralizing | neutralization of human IL-22 (pSTAT3 activation) (IL-22 [4]; listed as hIL-22BP): capable of binding and neutralizing | neutralization of murine IL-22 (pSTAT3 activation) (mouse IL-22): completely neutralizing | neutralization of murine IL-22 (pSTAT3 activation) (mouse IL-22; listed as hIL-22BP): capable of binding and neutralizing

Other lines, results leading:

binding result [1]: binds | binding result [2]: binds
B1: human IL-22 (ligand, UniProt Q9GZX6 34-179, looked up)
chain: T3 sequence (Q9GZX6 34-179)
notes: Used at a fixed 100 ng/ml

neutralization of human IL-22 (pSTAT3 activation) (IL-22 [4]): little sequestration | neutralization of murine IL-22 (pSTAT3 activation) (mouse IL-22): little sequestration
B4: murine IL-22BP: mouse interleukin-22 binding protein (SEQ ID NO: 2) (protein, listed as Mus musculus)
chain: MMPKHCLLGLLIILLSSATALEIQPARVSLTPQKVRFQSRNFHNILHWQAGSSLPSNNSIYFVQYKMYGQSQWEDKVDCWGTTALFCDLTNETLDPYELYYGRVMTACAGRHSAWTRTPRFTPWWETKLDPPVVTITRVNASLRVLLRPPELPNRNQSGKNASMETYYGLVYRVFTINNSLEKEQKAYEGTQRAVEIEGLIPHSSYCVVAEMYQPMFDRRSPRSKERCVQIP

binding result [1]: binds | binding result [2]: binds
B6: mouse IL-22 (ligand, UniProt Q9JJY9 34-179, looked up)
chain: T4 sequence (Q9JJY9 34-179)
notes: Used at a fixed 100 ng/ml; also called murine IL-22
